Test results from the supplement of paper PMC7125110.
± gives the standard error. Fewer inactive variants are shown than the library holds.

B1: glmS ribozyme (parent)
chain: AUAAAAGCGCCAGAACUACAGAAAUGUAGUUGACGAGGAGGAGGUUUAUCGAAUUUUCGGCGGAUGCCUCCAAA

Variants of: B1
Assay: self-cleavage kobs at 2500 uM GlcN6P; higher = faster cleavage; RNA array
Conditions: with glucosamine-6-phosphate
In short: (§1)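 Over ~14 h at 37 °C, tiles were imaged as glucosamine-6-phosphate (40 μM to 10 mM) in HEPES/KCl/Mg(OAc)2 buffer flowed across sequenced MiSeq chips. The chips carried barcoded ribozyme variants transcribed in situ by E. coli RNA polymerase and tracked with a hybridised Cy3 probe. After normalisation to baseline and to non-cleaving reference variants, one- or two-exponential decay fits of per-tile medians gave kobs. kcat and KM followed from weighted Michaelis–Menten fits across concentrations.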

| Variant | self-cleavage kobs at 2500 uM GlcN6P [s⁻¹] |
| --- | --- |
| G29A U55A C67U | 0.000242 ± 4.9e-05 |
| A36C U54A C61A C67A | 6.51e-05 ± 2.2e-05 |
| G37U A39G C68G | < 1e-05 |
| G40U G66U C67U | < 1e-05 |
| G26A U30C | 0.000125 ± 3.9e-05 |
| C16G U55A C67U C71A | 8.06e-05 ± 2.9e-05 |
| G13U A39U U56A | 0.000101 ± 2e-05 |
| C10U G32U U69A | 4.03e-05 ± 1.7e-05 |
| C8A C34G G66C | < 1e-05 |
| A15G A39U G40A C61A | < 1e-05 |
| A52C C58U G59U | < 1e-05 |
| G7A G41C U45C U47C | < 1e-05 |
| G7U G41A U47G C71G | < 1e-05 |
| U31C G59A G66U | < 1e-05 |
| G9A G35A A48C C50G | < 1e-05 |
| C8G G37C G43A G59A | < 1e-05 |
| A42G C61A U65C | < 1e-05 |
| U30G U46C C68U | 8.16e-05 ± 1.7e-05 |
| G37U A53U U57A | < 1e-05 |
| G9U C11U G29U A52U | < 1e-05 |
| U31G C68G C70G | < 1e-05 |
| G13U U30G G32C | 4.58e-05 ± 1.5e-05 |
| C16U G41C G44C G59C | < 1e-05 |
| A33C G40A G43C A52C | < 1e-05 |
| G7A A33U C61G C70G | < 1e-05 |
| G13A U30A G32U | 7.99e-05 ± 1.7e-05 |

| Variant | self-cleavage kobs at 2500 uM GlcN6P [s⁻¹] |
| --- | --- |
| A36G G44U A48G C67U C71A | < 1e-05 |
| U55A U56A G66C | 0.000134 ± 3.4e-05 |
| G40U C61U U65A | < 1e-05 |
| U30A A39G C70U | 0.00333 ± 0.00077 |
| C10U C16U G37U G38A A39G C50G A64G U65C | 0.000287 ± 0.00013 |
| G35U A36G G63C | < 1e-05 |
| A6U U31A G37C U54A | < 1e-05 |
| A6G G9U G29U G37A U46C U56C | < 1e-05 |
| A12U A14U A33C C50U | < 1e-05 |
| C50A U56G C70A | 8.66e-05 ± 2.8e-05 |
| A42U U45C U55A | 6.42e-05 ± 1.1e-05 |
| C10U A12C C70A | < 1e-05 |
| A6U A36C C67G | < 1e-05 |
| A52U A53C C67G | < 1e-05 |
| G43A U47A | 1.85e-05 ± 8.2e-06 |
| C16A C50G C67A | 0.00038 ± 0.00013 |
| C11U A64U C68U C71U | < 1e-05 |
| A6U C34A G44A | < 1e-05 |
| G32A G41U C50U U56A G62U | < 1e-05 |
| G9C A42C A48C C58G C71G | < 1e-05 |
| G13U G66A | 0.000499 ± 0.0001 |
| U45G U46A G66U | 0.000166 ± 3.9e-05 |
| A36U G40U G41C | < 1e-05 |
| C11G G51C A64C | < 1e-05 |
| G32U U54C G59C C68U | < 1e-05 |
| A42U C50U G51U U54C | < 1e-05 |

| Variant | self-cleavage kobs at 2500 uM GlcN6P [s⁻¹] |
| --- | --- |
| G35A C50A U57G | < 1e-05 |
| A15C G40U A42C | < 1e-05 |
| G35C C50G U54G | 8.42e-05 ± 1.5e-05 |
| A12U G44C C61G | < 1e-05 |
| G32U G37U C58U | < 1e-05 |
| G9C G37C A42U G43C C50U C67G C71A | < 1e-05 |
| G44C U55C C70G | < 1e-05 |
| G43C G66U C67A | 0.000168 ± 5.2e-05 |
| C10G C34A G37A G60U | < 1e-05 |
| G9U A12C A14C A48G U49A | < 1e-05 |
| C19A G44A | 0.000112 ± 4e-05 |
| A12U G41U A48U | 7.03e-05 ± 3e-05 |
| G51C G59A C71U | < 1e-05 |
| G40A A48U C58A G60A | < 1e-05 |
| A39G G41U C68G | < 1e-05 |
| C34U A39U G41C U69G | < 1e-05 |
| C34U G40A U57A | < 1e-05 |
| U45G U57A | 5.34e-05 ± 1.2e-05 |
| G9U C11G A12G A48U G51C | < 1e-05 |
| G7C A33C A36C G66U | < 1e-05 |
| A36C U49G G63A | < 1e-05 |
| A12U C34A G35A U49G | < 1e-05 |
| C10U C16U A33U | 6.87e-05 ± 3.4e-05 |
| A6U A14G U49C | < 1e-05 |
| G13C C34G U49C C71A | < 1e-05 |
| G7A A36G G38A U47G A53G | < 1e-05 |

| Variant | self-cleavage kobs at 2500 uM GlcN6P [s⁻¹] |
| --- | --- |
| G35C G40U G51A U65G | < 1e-05 |
| A42C A53C U55C | < 1e-05 |
| G29U G38U G66U C68A U69G | 0.000147 ± 5.8e-05 |
| A15C G37A A39G | 0.000365 ± 0.00012 |
| U47G G62U G63U U65G | < 1e-05 |
| G32C G44A U45C | < 1e-05 |
| A33G U56G G59C | < 1e-05 |
| G13A A52C G60A | < 1e-05 |
| C34A G43A A64G | < 1e-05 |
| A12C U30A C50U G51C | < 1e-05 |
| A33C A36C G38U G41A G66C | < 1e-05 |
| G41U U55C C61G | < 1e-05 |
| A14U A33G G38A | < 1e-05 |
| G37U A42C U55G | < 1e-05 |
| G7C A52U U54G C61U | < 1e-05 |
| G13C A15U C61G | < 1e-05 |
| G38C U57G G59A A64G | < 1e-05 |
| A6C C11G U49G U65C C68G | < 1e-05 |
| G13C C16G U69G | 7.16e-05 ± 3.5e-05 |
| C16U A39U U54G | 0.00743 ± 0.0018 |
| A14U U47G C68U | 0.000197 ± 3.4e-05 |
| G32C U54G A64U | < 1e-05 |
| A14G A33U C70G | < 1e-05 |
| G40A U56A C70G | 0.000135 ± 3e-05 |
| A6U G9A C68U | < 1e-05 |
| C11G G41U A48C C70G | < 1e-05 |

| Variant | self-cleavage kobs at 2500 uM GlcN6P [s⁻¹] |
| --- | --- |
| C11A U65G C70G C71A | 0.000187 ± 6.3e-05 |
| G29U G32U C50G | 6.06e-05 ± 2.9e-05 |
| C34A G44U C58G | < 1e-05 |
| G7U C16U U46G | < 1e-05 |
| A12G A36C G38A A64U | < 1e-05 |
| C11A U31A A33G | < 1e-05 |
| U46A A64G G66A C71G | 6.58e-05 ± 2.6e-05 |
| C16G G29C U31G | 0.00447 ± 0.00064 |
| C8U U55G U65G | < 1e-05 |
| C10U G40A C70G | < 1e-05 |
| C16G G32C G41U U69C | < 1e-05 |
| C16U U45G U54G | 0.0032 ± 0.001 |
| C11G A15C U45C C68G | < 1e-05 |
| C8A G38A G63U C68U | < 1e-05 |
| G9U C34A G59U G63A | < 1e-05 |
| U30G G44A | 6.16e-05 ± 1.7e-05 |
| A15G A52U C70U | 0.000255 ± 6.5e-05 |
| C10A U30C U55C | < 1e-05 |
| A33C G35A G38C A52U U65C C68G | < 1e-05 |
| G37A G60U | < 1e-05 |
| G9A A14C G43U U46A | < 1e-05 |
| A53C C61A G62U | < 1e-05 |
| C11G C50G C58A | 0.00031 ± 0.00011 |
| G29C A52G C67U | 7.8e-05 ± 2.1e-05 |
| C61G C68G | 0.000131 ± 5.8e-05 |
| G13U C19A C70U | 0.000171 ± 2.8e-05 |

| Variant | self-cleavage kobs at 2500 uM GlcN6P [s⁻¹] |
| --- | --- |
| A14U U45A C71G | 0.000196 ± 5.4e-05 |
| U31A G32U U45G | 0.000148 ± 5.6e-05 |
| G7C G51U A53U G60U | < 1e-05 |
| G32A C50G C71U | 0.000168 ± 7.3e-05 |
| A6U C8A U56A | < 1e-05 |
| C10U A36G G41U G59U C68A | < 1e-05 |
| C10A C11A A39C | < 1e-05 |
| G29A G43C G60C | < 1e-05 |
| A6C G13A A39C C67U C70G | < 1e-05 |
| A12C U31A U47C C67U | 5.13e-05 ± 2.1e-05 |
| A15U G35U G38U U49G U54A | < 1e-05 |
| G9C C10A G32A | < 1e-05 |
| C16G A42G A64U G66A C68A | < 1e-05 |
| G9C A39G C50U C71A | < 1e-05 |
| G9U C11U A33G G40U U69G | < 1e-05 |
| G7C G37A G63U | < 1e-05 |
| A53U C58G C61G C71G | 0.000415 ± 0.00016 |
| G7A G13A G40C U47G | < 1e-05 |
| A12G U54A U55G | 0.000119 ± 4.5e-05 |
| C8U C34U A42U U65A C67G | 5.58e-05 ± 2.1e-05 |
| G38U U45C U57A | < 1e-05 |
| A6U A12U U54G | 0.000203 ± 6e-05 |

Variants of: B1
Assay: self-cleavage kobs at 10000 uM GlcN6P; higher = faster cleavage; RNA array
Conditions: with glucosamine-6-phosphate
In short: as §1

| Variant | self-cleavage kobs at 10000 uM GlcN6P [s⁻¹] |
| --- | --- |
| C16G U55A C67U C71A | 3.71e-05 ± 1.3e-05 |
| U30G U46C C68U | 0.000214 ± 5.2e-05 |
| C10U C16U G37U G38A A39G C50G A64G U65C | 0.0013 ± 0.0004 |
| G43A U47A | 4.61e-05 ± 1.8e-05 |
| G32A G41U C50U U56A G62U | < 1e-05 |
| G13U G66A | 0.000729 ± 0.00013 |
| G35C C50G U54G | 0.000106 ± 1.6e-05 |
| U45G U57A | 9.86e-05 ± 1.3e-05 |
| C10U C16U A33U | 3.41e-05 ± 1.4e-05 |
| G51C G63U | < 1e-05 |
| C8U U55G U65G | < 1e-05 |
| U30G G44A | 6.05e-05 ± 2e-05 |
| G37A G60U | < 1e-05 |
| G9U C11U A33G G40U U69G | < 1e-05 |

Variants of: B1
Assay: self-cleavage kobs at 640 uM GlcN6P; higher = faster cleavage; RNA array
Conditions: with glucosamine-6-phosphate
In short: as §1

| Variant | self-cleavage kobs at 640 uM GlcN6P [s⁻¹] |
| --- | --- |
| A14U A33C U57C | 0.0103 ± 0.004 |
| G9A G35A A48C C50G | < 1e-05 |
| G13C C16G G41A | < 1e-05 |
| A36C U49G G63A | < 1e-05 |
| G35A U65C U69C | < 1e-05 |
| G51C G63U | < 1e-05 |
| A14U G37A A52U G60U | < 1e-05 |
| A14U A33G G38A | < 1e-05 |
| A14G C50G G51C C61U U69A | 0.000136 ± 6.5e-05 |
| G9U C34A G59U G63A | < 1e-05 |
| G13C U55A U69A | 0.00022 ± 7e-05 |
| C8U C34U A42U U65A C67G | 0.000104 ± 4.1e-05 |
